{"source": "patent US20120245327", "key": {"[1]": {"target": "recombinant human collagen Type I (purified product of TT080417-1-8 strain)", "sequence (chain, as listed by the source, chain 1 of 2)": "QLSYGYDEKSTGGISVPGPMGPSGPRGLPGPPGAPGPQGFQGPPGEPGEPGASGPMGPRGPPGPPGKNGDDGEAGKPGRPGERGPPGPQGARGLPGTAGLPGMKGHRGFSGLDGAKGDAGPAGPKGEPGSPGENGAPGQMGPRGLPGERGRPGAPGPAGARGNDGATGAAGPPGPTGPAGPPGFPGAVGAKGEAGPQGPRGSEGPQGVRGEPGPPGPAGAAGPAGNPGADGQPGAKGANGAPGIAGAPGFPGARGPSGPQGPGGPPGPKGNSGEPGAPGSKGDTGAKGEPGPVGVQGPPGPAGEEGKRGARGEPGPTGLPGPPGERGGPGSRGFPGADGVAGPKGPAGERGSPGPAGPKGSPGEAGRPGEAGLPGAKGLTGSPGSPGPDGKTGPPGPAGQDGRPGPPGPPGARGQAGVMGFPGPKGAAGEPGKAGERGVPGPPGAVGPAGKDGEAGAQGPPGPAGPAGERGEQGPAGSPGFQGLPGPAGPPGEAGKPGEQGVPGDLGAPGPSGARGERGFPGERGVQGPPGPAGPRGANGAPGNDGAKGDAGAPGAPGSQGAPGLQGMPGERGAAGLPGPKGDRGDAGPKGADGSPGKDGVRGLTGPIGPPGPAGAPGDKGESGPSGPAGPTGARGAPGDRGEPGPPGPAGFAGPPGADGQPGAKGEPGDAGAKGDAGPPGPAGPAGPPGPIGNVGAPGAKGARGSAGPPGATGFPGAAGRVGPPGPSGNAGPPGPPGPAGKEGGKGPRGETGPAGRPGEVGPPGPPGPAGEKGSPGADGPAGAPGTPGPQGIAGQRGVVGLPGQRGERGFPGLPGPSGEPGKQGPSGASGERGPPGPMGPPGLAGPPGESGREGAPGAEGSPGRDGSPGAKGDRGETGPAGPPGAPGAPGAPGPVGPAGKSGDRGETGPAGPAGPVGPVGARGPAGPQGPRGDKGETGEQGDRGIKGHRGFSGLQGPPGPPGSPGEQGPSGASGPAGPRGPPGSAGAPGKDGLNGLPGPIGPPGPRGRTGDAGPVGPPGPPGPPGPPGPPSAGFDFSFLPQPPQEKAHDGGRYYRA", "sequence (chain, as listed by the source, chain 2 of 2)": "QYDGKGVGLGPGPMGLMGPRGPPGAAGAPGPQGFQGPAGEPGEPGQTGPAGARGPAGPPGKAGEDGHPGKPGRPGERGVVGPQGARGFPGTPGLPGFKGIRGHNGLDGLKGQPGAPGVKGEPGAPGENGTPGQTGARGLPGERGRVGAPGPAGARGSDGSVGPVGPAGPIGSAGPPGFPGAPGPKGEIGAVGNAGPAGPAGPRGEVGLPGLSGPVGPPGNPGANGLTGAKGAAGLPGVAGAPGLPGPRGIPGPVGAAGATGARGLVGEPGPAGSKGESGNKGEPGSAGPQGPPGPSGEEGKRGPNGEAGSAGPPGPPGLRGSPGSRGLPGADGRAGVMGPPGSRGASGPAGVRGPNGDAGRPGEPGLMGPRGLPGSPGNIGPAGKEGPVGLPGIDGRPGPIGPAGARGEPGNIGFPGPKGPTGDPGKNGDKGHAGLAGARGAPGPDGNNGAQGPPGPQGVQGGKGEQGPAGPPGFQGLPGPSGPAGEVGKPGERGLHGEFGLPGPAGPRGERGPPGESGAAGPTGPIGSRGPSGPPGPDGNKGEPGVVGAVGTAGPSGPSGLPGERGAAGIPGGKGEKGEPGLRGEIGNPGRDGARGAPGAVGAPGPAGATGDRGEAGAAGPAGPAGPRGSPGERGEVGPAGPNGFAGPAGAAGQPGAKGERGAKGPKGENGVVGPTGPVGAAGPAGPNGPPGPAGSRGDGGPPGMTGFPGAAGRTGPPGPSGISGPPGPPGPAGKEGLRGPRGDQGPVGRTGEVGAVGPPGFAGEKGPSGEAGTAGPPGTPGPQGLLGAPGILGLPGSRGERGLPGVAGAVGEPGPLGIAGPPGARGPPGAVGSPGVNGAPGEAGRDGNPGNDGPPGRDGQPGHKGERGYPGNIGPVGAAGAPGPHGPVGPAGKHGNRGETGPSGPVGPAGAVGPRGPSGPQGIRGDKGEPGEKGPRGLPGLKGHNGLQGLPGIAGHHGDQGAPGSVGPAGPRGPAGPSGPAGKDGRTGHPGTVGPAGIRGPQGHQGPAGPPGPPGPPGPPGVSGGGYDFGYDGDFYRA"}, "[2]": {"target": "T1, recombinant human collagen Type III (purified product of TT061226-1-3 strain)", "T1 chain": "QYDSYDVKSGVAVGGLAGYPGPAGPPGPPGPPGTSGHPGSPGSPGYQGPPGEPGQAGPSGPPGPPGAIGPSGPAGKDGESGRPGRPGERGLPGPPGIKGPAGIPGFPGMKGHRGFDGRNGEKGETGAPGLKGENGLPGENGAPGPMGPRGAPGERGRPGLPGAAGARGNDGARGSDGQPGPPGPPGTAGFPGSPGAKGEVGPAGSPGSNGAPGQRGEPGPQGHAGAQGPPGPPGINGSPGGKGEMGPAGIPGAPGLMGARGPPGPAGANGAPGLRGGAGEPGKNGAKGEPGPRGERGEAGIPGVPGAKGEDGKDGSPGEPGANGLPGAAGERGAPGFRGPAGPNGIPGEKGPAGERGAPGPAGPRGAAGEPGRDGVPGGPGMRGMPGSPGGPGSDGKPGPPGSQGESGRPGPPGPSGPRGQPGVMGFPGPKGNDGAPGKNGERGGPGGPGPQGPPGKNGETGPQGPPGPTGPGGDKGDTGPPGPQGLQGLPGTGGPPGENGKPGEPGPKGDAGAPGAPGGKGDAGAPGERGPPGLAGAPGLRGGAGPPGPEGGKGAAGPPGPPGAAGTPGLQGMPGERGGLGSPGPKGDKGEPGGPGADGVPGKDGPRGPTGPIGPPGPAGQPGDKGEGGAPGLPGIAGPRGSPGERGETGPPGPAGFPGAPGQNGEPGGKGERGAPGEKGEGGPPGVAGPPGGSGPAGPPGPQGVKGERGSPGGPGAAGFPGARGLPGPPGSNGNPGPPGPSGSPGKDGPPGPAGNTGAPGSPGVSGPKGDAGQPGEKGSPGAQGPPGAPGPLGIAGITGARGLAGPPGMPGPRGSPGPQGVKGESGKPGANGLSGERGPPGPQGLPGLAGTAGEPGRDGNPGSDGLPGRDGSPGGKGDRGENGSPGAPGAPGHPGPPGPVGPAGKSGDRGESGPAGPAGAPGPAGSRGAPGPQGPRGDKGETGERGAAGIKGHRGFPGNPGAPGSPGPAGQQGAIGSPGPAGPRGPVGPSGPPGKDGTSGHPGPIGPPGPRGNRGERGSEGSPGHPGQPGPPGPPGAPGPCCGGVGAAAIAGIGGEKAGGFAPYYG"}}, "data": [{"protein": "lysyl hydroxylase 1 (protein) KGDAKPEDNLLVLTVATKETEGFRRFKRSAQFFNYKIQALGLGEDWNVEKGTSAGGGQKVRLLKKALEKHADKEDLVILFTDSYDVLFASGPRELLKKFRQSRSQVVFSAEELIYPDRRLETKYPVVSDGKRFLGSGGFIGYAPNLSKLVAEWEGQDSDSDQLFYTKIFLDPEKREQINITLDHRCRIFQNLDGALDEVVLKFEMGHVRARNLAYDTLPVLIHGNGPTKLQLNYLGNYIPRFWTFETGCTVCDEGLRSLKGIGDEALPTVLVGVFIEQPTPFVSLFFQRLLRLHYPQKHMRLFIHNHEQHHKAQVEEFLAQHGSEYQSVKLVGPEVRMANADARNMGADLCRQDRSCTYYFSVDADVALTEPNSLRLLIQQNKNVIAPLMTRHGRLWSNFWGALSADGYYARSEDYVDIVQGRRVGVWNVPYISNIYLIKGSALRGELQSSDLFHHSKLDPDMAFCANIRQQDVFMFLTNRHTLGHLLSLDSYRTTHLHNDLWEVFSNPEDWKEKYIHQNYTKALAGKLVETPCPDVYWFPIFTEVACDELVEEMEHFGQWSLGNNKDNRIQGGYENVPTIDIHMNQIGFEREWHKFLLEYIAPMTEKLYPGYYTRAQFDLAFVVRYKPDEQPSLMPHHDASTFTINIALNRVGVDYEGGGCRFLRYNCSIRAPRKGWTLMHPGRLTHYHEGLPTTRGTRYIAVSFVDP", "values": [{"measurement": "composition ratio of hydroxylated lysine to the total lysine residues (amino acid analysis of purified collagen)", "setting": "[1]", "value": "a composition ratio of the hydroylated lysine to the total lysine residues was increased up to 50.1%"}, {"measurement": "composition ratio of hydroxylated lysine to the total lysine residues (amino acid analysis of purified collagen)", "setting": "[2]", "value": "a composition ratio of hydroxylated lysine to the total lysine residues was increased up to 36.9%"}]}]}
